The values that follow come from article PMC2992810.

Where two headings read alike, the source gives them in different places.

Assay [1] has as its target MC2R-MRAP complex (HA-hMC2R co-expressed with mMRAP on CHO cells) (human | mouse) (UniProt Q01718). The experiment in a line: radioligand binding.
The target in assay [2] is MC2R-MRAP2 complex (HA-hMC2R co-expressed with mMRAP2 on CHO cells) (human | mouse) (UniProt Q01718).
In assay [3] the target is MC2R-MRAP complex (HA-hMC2R co-expressed with mMRAP on CHO cells) (human | mouse) (UniProt Q01718).
The target is the same in assay [4]. This is another data set of the same source.
Assay [5] has as its target HA-hMC4R (human) (UniProt P32245). The experiment in a line: radioligand binding.
Sequence of UniProt P32245 (P32245 whole entry): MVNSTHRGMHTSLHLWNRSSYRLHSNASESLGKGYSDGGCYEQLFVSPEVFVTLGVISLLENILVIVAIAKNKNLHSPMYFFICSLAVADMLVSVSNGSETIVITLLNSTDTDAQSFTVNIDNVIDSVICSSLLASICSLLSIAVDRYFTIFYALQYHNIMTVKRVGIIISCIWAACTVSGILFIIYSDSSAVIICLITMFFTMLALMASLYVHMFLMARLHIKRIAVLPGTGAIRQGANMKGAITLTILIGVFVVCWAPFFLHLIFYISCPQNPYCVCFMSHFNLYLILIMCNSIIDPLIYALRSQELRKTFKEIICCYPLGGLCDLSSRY
The target is the same in assay [6]. Nature of the assay: radioligand binding. The source holds these as a separate data set.
Assay [7] shares this target. The experiment in a line: radioligand binding. This is another data set of the same source.
For assay [8] the target is unchanged.

The IC50 is the concentration needed to halve the response being measured. Low values mean inhibition by little substance, high ones a need for much substance. Substance ACTH(1–39) (peptide) had an IC50 in assay [1] of 5.7 nM. Also, the EC50 of phosphorylation of ERK1 and ERK2 in serum-deprived HEK 293 cells (5 min) in assay [2] is 68 nM; in assay [3], 1.1 nM. This substance showed an EC50 of cAMP accumulation (LANCE assay, 20 min) in CHO cells in assay [4] of 2.4 nM.

As for NDP-α-MSH (peptide), the concentration for half-maximal inhibition (IC50) in assay [5] worked out at 0.19 nM; in assay [6] it was 0.92 nM; in assay [7], 1.1 nM. In assay [8], this substance displayed an EC50 of the CRE-Luc cAMP reporter response in CHO cells containing MC4R alone of 0.11 nM. The substance further yielded an EC50 of the CRE-Luc cAMP reporter response in CHO cells containing MC4R and MRAP in assay [8] of 0.27 nM.
